In the RNAGym collection of RNA variant scans (doi:10.1093/nar/gkz1192):

B1: CPEB3 Ribozyme (parent)
chain: UAACAGGGGGCCACAGCAGAAGCGUUCACGUCGCAGCCCCUGUCAGAUUCUGGUGAAUCUGCGAAUUCUGCUGUAUAUCUC

Variants of: B1
Assay: self-cleavage, relative activity (ratio to wild type); higher = more cleavage; in vitro, sequencing
How it was run: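 For each CPEB3 ribozyme variant, relative activity is its cleaved/total read fraction divided by the unmutated ribozyme's. Barcoded error-prone PCR libraries were transcribed by T7 RNA polymerase (5 hours, 37°C) and held in DNase I for 15 min before an EDTA stop, with cleavage occurring throughout. Template-switching reverse transcription and Illumina sequencing were used to read the RNAs. A 5-read minimum applied, and results are the mean of three batches.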

Variant | self-cleavage
C4A U51C | 1.14
C4A U58A | 0.67
C4A U58C | 0.76
C4A U60A | 0.89
C4A U66C | 0.24
C4A U67A | 1
C4A U67C | 0.44
C4A U69A | 0.68
C4A U72A | 0.42
C4A U72C | 1.22
C4A U74C | 1.22
C4A U76A | 1.2
C4A U78C | 0.74
C4A U80A | 1.06
C4A U80C | 1.11
C4G | 1.1
C4G A13C | 1.17
C4G A13G | 1.08
C4G A21G | 1.14
C4G A57G | 0.98
C4G A77G | 1.19
C4G G8C | 0.66
C4G G36U | 0.28
C4G G55U | 1.12

Variant | self-cleavage
C4G U26A | 1.19
C4G U26C | 0.96
C4G U31C | 1.17
C4G U41A | 0.5
C4G U41C | 1.1
C4G U49A | 0.65
C4G U51A | 1.15
C4G U51C | 1.12
C4G U60C | 0.68
C4G U66A | 0.79
C4G U67C | 0.29
C4G U69C | 0.95
C4G U72A | 1.13
C4U | 1.17
C4U A5G | 0.84
C4U A13C | 1.21
C4U A15G | 1.17
C4U A15U | 0.86
C4U A18U | 0.73
C4U A20C | 0.21
C4U A20G | 0.81
C4U A20U | 0.42
C4U A21G | 0.89
C4U A28G | 1.03

Variant | self-cleavage
C4U A28U | 1.08
C4U A35G | 1.29
C4U A35U | 0.81
C4U A45G | 1.25
C4U A45U | 0.47
C4U A47G | 1.15
C4U A56G | 1.06
C4U A57G | 1.05
C4U A64U | 0.7
C4U A65G | 0.43
C4U A75G | 1.15
C4U C12U | 1.21
C4U C17U | 1.05
C4U C23G | 0.53
C4U C27U | 0.56
C4U C29U | 0.72
C4U C37G | 0.9
C4U C37U | 0.91
C4U C38A | 0.54
C4U C40U | 0.86
C4U C50A | 1.17
C4U G7C | 0.13
C4U G8A | 0.28
C4U G8U | 0.38

Variant | self-cleavage
C4U G9U | 0.17
C4U G10A | 0.63
C4U G10U | 0.25
C4U G30A | 0.22
C4U G33A | 0.37
C4U G42A | 0.32
C4U G52A | 1.26
C4U G55U | 1.28
C4U G63U | 1.23
C4U U25A | 0.31
C4U U25C | 0.2
C4U U25G | 0.45
C4U U26A | 1.13
C4U U26C | 0.88
C4U U31A | 0.82
C4U U31C | 1.11
C4U U41A | 0.48
C4U U41C | 1.07
C4U U43C | 0.93
C4U U48C | 0.99
C4U U49C | 0.69
C4U U51A | 0.98
C4U U51C | 1.16
C4U U54A | 1.18

Variant | self-cleavage
C4U U54C | 1.15
C4U U58C | 1.06
C4U U60A | 0.95
C4U U60C | 0.75
C4U U60G | 0.86
C4U U66C | 0.59
C4U U67A | 0.76
C4U U67C | 0.42
C4U U69C | 0.86
C4U U72A | 1.01
C4U U72C | 1.12
C4U U74C | 1.18
C4U U76C | 1.16
C4U U78A | 0.9
C4U U78C | 1.14
C4U U80C | 1.19
A5C | 0.98
A5C A13G | 1.07
A5C A13U | 1.22
A5C A15C | 0.81
A5C A15G | 0.96
A5C A15U | 0.99
A5C A18G | 0.53
A5C A21G | 0.69

Variant | self-cleavage
A5C A21U | 0.36
A5C A28G | 0.63
A5C A28U | 1.12
A5C A35G | 1.18
A5C A35U | 0.54
A5C A45G | 0.7
A5C A45U | 0.59
A5C A47G | 0.78
A5C A47U | 0.53
A5C A56G | 0.75
A5C A57C | 0.52
A5C A57G | 0.9
A5C A64G | 1
A5C A64U | 1
A5C A65G | 0.44
A5C A75G | 0.69
A5C C17A | 0.19
A5C C23G | 0.18
A5C C29U | 0.42
A5C C32G | 0
A5C C34G | 0.41
A5C C34U | 0.47
A5C C37G | 0.87
A5C C37U | 0.76

Variant | self-cleavage
A5C C50A | 0.8
A5C C62U | 0.13
A5C C68G | 0.23
A5C C71U | 0.57
A5C G6U | 0.32
A5C G8A | 0.46
A5C G8C | 0.36
A5C G9A | 0.41
A5C G9U | 0.52
A5C G10A | 0.09
A5C G30A | 0.19
A5C G30U | 0.24
A5C G36A | 0.31
A5C G46U | 0.06
A5C G55U | 1.13
A5C G63C | 0.95
A5C G63U | 0.91
A5C U25C | 0.15
A5C U26A | 1.04
A5C U26C | 0.58
A5C U31A | 0.75
A5C U31C | 0.8
A5C U41A | 0.28
